Target: monkey CD22 on HEK293T-monkey CD22 cells (monkey)
Assay: FACS, HEK293T-monkey CD22 cells

Chain of monkey CD22 on HEK293T-monkey CD22 cells (monkey) (chain, as listed by the source limits assumed): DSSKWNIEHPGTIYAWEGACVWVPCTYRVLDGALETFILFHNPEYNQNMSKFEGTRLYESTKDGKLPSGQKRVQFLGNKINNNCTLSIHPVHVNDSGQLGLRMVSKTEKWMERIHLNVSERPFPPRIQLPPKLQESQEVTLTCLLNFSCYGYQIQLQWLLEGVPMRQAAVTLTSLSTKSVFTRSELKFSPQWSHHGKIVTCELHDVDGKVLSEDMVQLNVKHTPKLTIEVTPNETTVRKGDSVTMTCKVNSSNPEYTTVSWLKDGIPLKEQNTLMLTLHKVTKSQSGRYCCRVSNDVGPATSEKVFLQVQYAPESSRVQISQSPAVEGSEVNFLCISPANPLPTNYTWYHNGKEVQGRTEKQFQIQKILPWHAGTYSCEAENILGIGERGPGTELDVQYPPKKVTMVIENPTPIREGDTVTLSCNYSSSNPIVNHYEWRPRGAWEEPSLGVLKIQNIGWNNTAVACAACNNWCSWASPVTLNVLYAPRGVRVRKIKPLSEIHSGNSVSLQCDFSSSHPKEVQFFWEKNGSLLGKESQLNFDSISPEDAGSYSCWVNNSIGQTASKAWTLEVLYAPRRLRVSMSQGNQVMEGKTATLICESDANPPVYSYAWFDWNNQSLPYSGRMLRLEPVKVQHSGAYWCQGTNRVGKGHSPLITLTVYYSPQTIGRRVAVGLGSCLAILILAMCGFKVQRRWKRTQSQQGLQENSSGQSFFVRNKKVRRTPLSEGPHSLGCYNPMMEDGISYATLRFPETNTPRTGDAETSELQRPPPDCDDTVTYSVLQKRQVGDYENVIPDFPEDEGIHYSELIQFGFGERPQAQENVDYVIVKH

Maximum mean fluorescence intensity: 1490 MFI
B1: F1.280.1 (antibody, human IgG1, kappa, V domains shown)
VH: QIQLVQSGPELKKPGETVKISCKASGYTFTTYGMSWVKQTPGKGLTWMGWINTDSGVPTYADDFKRRFAFSLEASATTAYLQINNLKNEDTATYFCARGGPDYWGQGTTLTVSS
VL: DILLTQSPATLSVTPGETVSLSCRASQSIYKNLHWYHQKSHRSPRLLIKYASDSISGIPSRFTGSGSGTNFTLSINSVKPEDEGIYYCLQGYIVPLTFGAGTKLELKR
